# Measurements published in US20060229240A1 (GARDELL ET AL, published 2006).
# Like-named read-outs stand apart in the source and are kept apart here. Positions of bridges follow the written chain, without caps; N, C: chain ends. Non-standard residues stand in square brackets, D forms with d. No end group written: not given here. hArg = N=C(N)NCCCC[C@H](N)C(=O)O; Aib = CC(C)(N)C(=O)O
# T1: P1R-DelNt (truncated human P1R deleted for residues 24-181) (human, UniProt Q03431 182-593)
# T1 sequence (looked up): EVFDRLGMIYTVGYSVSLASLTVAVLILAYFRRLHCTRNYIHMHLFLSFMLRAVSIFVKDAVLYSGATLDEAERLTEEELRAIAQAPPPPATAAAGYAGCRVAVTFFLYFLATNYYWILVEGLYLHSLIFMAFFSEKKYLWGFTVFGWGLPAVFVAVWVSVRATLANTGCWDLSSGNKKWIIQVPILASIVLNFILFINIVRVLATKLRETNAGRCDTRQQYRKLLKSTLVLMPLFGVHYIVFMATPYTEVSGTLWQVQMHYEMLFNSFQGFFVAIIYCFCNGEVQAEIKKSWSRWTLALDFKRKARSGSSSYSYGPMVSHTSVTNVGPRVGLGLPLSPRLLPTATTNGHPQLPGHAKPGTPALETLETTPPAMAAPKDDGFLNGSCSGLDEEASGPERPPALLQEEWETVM
# T2: PTH/PTHrP receptor (P1R), wild-type, full-length (human, UniProt Q03431 27-593)
# T2 sequence (looked up): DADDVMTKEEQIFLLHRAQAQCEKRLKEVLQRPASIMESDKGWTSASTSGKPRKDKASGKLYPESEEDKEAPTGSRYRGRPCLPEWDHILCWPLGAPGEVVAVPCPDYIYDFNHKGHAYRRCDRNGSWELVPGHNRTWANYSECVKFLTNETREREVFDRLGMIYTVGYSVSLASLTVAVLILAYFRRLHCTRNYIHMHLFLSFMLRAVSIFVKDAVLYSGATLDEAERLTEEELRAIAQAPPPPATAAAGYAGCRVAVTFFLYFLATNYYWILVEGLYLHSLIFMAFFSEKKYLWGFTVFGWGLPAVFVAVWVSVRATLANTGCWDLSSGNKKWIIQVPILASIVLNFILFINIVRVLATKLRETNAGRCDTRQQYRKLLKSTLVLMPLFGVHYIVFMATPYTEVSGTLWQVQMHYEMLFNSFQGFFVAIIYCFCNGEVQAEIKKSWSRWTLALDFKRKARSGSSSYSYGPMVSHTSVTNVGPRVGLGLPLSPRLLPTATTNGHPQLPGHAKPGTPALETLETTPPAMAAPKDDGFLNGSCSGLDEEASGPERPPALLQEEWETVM
# How the values were obtained:
# [1] = target: T1, P1R-DelNt (truncated human P1R deleted …); assay: cell-based or functional assay
# [2] = target: T2, PTH/PTHrP receptor (P1R), wild-type, …; assay: cell-based or functional assay
# [3] = target: T2, PTH/PTHrP receptor (P1R), wild-type, …; assay: cell-based or functional assay; remark: listed apart in the source
# [4] = target: T2, PTH/PTHrP receptor (P1R), wild-type, …; assay: competition with 125I-[Ala3,12,Gln10,Har11,Trp14,Arg19,Tyr21]PTH(1-21)-amide tracer on HKRK-B28 cells expressing P1R
# Experimental: Competition Binding. Binding reactions were performed with […] cells or in COS-7 cells in 24-well plates. The cells were rinsed with 0.5 mL of binding buffer, and then treated successively with 100 μL binding buffer, 100 μL of binding buffer containing various amounts of unlabeled competitor ligand, and 100 μL of binding buffer containing ca. 100,000 cpm of ¹²⁵I-[M]PTH(1-21)(SEQ. ID. NO. 16) or ¹²⁵I-[Aib^{1,3},M]PTH(1-21)(SEQ. ID. NO. 17) (ca. 26 fmol; final volume=300 μL). Incubations were 4 to 6 h at 4° C., at which time near equilibrium conditions were attained. Cells were then placed on ice, the binding medium was removed, and the monolayer was rinsed three times with 0.5 mL of cold binding buffer. The cells were subsequently lysed with 0.5 mL 5N NaOH and counted for radioactivity. For each tracer and in each experiment, the non-specific binding was determined as the radioactivity that bound in the presence of the same unlabeled peptide at a concentration of 1 μM, and was ˜1% of total radioactivity added for each tracer. The maximum specific binding (B₀) was the total radioactivity bound in the absence of competing ligand, corrected for nonspecific binding, and for each tracer, ranged from 8% to 20% of the total radioactivity added. Nonlinear regression was used to calculate binding IC₅₀ values (see below). Scatchard transformations of homologous competition binding data derived from studies with 26 fmol of ¹²⁵I-[Aib^{1,3},M]PTH(1-21) (SEQ. ID. NO. 17) were employed for estimations of apparent equilibrium dissociation constant (kDapps) and total number of ligand binding sites (Bₘₐₓ), assuming a single class of binding sites and equal affinities of the iodinated and non iodinated ligand.
# The peptide PTH(1-34) ([Tyr³⁴]bPTH(1-34)NH₂) (SEQ. ID. NO. 10) and analogs containing substitutions at positions 6 and/or 10 in place of Gln and Asn, respectively, were evaluated in HKRK-B28 cells for the capacity to stimulate cAMP accumulation, and to inhibit the binding of ¹²⁵I-[Ala^{3,12}, Gln¹⁰, Har¹¹, Trp¹⁴,Arg¹⁹, Tyr²¹]PTH(1-21)-amide (SEQ. ID. NO. 30) tracer radioligand.
# [5] = target: T2, PTH/PTHrP receptor (P1R), wild-type, …; assay: cell-based or functional assay; remark: listed apart in the source
# [6] = target: T2, PTH/PTHrP receptor (P1R), wild-type, …; assay: cell-based or functional assay; remark: listed apart in the source
# [7] = target: T2, PTH/PTHrP receptor (P1R), wild-type, …; assay: cell-based or functional assay; remark: listed apart in the source
# [8] = target: T1, P1R-DelNt (truncated human P1R deleted …); assay: cell-based or functional assay; remark: listed apart in the source
# [9] = target: T1, P1R-DelNt (truncated human P1R deleted …); assay: cell-based or functional assay; remark: listed apart in the source
binder,measurement,setting,value
SVSEIQLMHALGKHLNSMERVEWLRKKLQDVHNY-NH2 [[Ala^10]PTH(1-34)],cAMP EC50,[1],14 µM
same,cAMP Emax (%),[1],46%
same,cAMP EC50,[2],0.27 µM
same,cAMP Emax (%),[2],96%
same,cAMP EC50,[3],3 µM
same,cAMP Emax (%),[3],106%
same,IC50,[4],6.4 µM
"AVAEIKLMHE[hArg]AKW-NH2 (lactam 6-10; N-terminus assumed; SMILES CC[C@H](C)[C@H](NC(=O)[C@H](CCC(=O)O)NC(=O)[C@H](C)NC(=O)[C@@H](NC(=O)[C@H](C)N)C(C)C)C(=O)N[C@H]1CCCCNC(=O)CC[C@@H](C(=O)N[C@@H](CCCCNC(=N)N)C(=O)N[C@@H](C)C(=O)N[C@@H](CCCCN)C(=O)N[C@@H](Cc2c[nH]c3ccccc23)C(N)=O)NC(=O)[C@H](Cc2c[nH]cn2)NC(=O)[C@H](CCSC)NC(=O)[C@H](CC(C)C)NC1=O) [[(Lys^6, Glu^10)lac.]PTH(1-14)]","cAMP potency relative to linear [Lys^6, Glu^10]PTH(1-14)",[5],6 fold
same,cAMP EC50,[6],21 µM
same,cAMP Emax (%),[6],59%
AVAEIQLMHQR-NH2 [PTH(1-11) (AlaValAlaGluIleGlnLeuMetHisGlnArg-amide)],cAMP EC50,[7],5 µM
same,cAMP Emax (%),[7],100%
same,fold increase in cAMP formation,[8],55 fold
same,fold increase in cAMP formation,[5],75 fold
same,cAMP EC50,[9],14 µM
same,cAMP Emax (%),[9],100%
"[Aib]V[Aib]EIQLMHQ[hArg]AKW-NH2 (N-terminus assumed; SMILES CC[C@H](C)[C@H](NC(=O)[C@H](CCC(=O)O)NC(=O)C(C)(C)NC(=O)[C@@H](NC(=O)C(C)(C)N)C(C)C)C(=O)N[C@@H](CCC(N)=O)C(=O)N[C@@H](CC(C)C)C(=O)N[C@@H](CCSC)C(=O)N[C@@H](Cc1c[nH]cn1)C(=O)N[C@@H](CCC(N)=O)C(=O)N[C@@H](CCCCNC(=N)N)C(=O)N[C@@H](C)C(=O)N[C@@H](CCCCN)C(=O)N[C@@H](Cc1c[nH]c2ccccc12)C(N)=O) [[Aib^1,3]PTH(1-14) (AibValAibGluIleGlnLeuMetHisGlnHarAlaLysTrp-amide)]",fold increase in cAMP accumulation,[8],50 fold
same,cAMP EC50,[9],0.0066 µM
same,cAMP Emax (%),[9],100%
